Measurements published in publication PMC9640981, “Plant vernalization proteins contain unusual PHD superdomains without histone H3 binding activity” (The Journal of Biological Chemistry, 2022).
Entries after “also recorded” stand apart in the source; their conditions may differ.

Assays:
[1] = tested on: ^15N-labeled Pd VIN3_123-326; assay: NMR (BEST-TROSY) interaction of negatively charged polymers with Pd VIN3 PHD superdomain; format: binding, Phoenix dactylifera
Procedure: (§1) For NMR spectroscopy, A. thaliana VIN3_150-208 and P. dactilyfera VIN3_123-326 were expressed in M9 minimal medium supplemented with 0.4% glucose, antibiotics, trace elements, 25 ml overnight culture, and 2 g of ^15N-H4Cl per liter of expression culture. Cultures were grown and processed essentially as described before. NMR samples containing 50 μM ^15N-labeled VIN3_150-208 or VIN3_123-326 were prepared in aqueous buffer (25 mM Tris pH 8, 150 mM NaCl, and 1 mM DTT). The 50 μM ^15N-labeled VIN3_150-208 or VIN3_123-326 was incubated with 0.5 mM histone H3 peptides resuspended in 25 mM Tris pH 8, 150 mM NaCl, and 1 mM DTT for >30 min before measurement. Spectra were recorded on a Bruker Avance-III spectrometer operating at 600 MHz ^1H frequency and equipped with a 5 mm inverse detection cryogenic probe. BEST-TROSY shift correlation experiments ([45]) were acquired with 256 × 1024 points in t1 and t2, respectively. Spectra were processed in TopSpin version 3.2 (Bruker), with linear prediction in t1, giving a digital resolution of 2.2 and 8.2 Hz/point in the processed data.
Generation of nucleic acid probes for NMR
FLC DNA was used as a template for the design of a dsDNA 60-mer probe, generated by annealing the sequence (5′ […] 3′) and its complementary oligonucleotide for 2 min at 95 °C. […]

VIN3 PHD superdomain = assay: Interaction of negatively charged polymers with VIN3 PHD superdomain (NMR and ITC, summary); format: binding, Phoenix dactylifera; conditions: listed as RNA
Procedure: ITC was carried out at 25 °C with an iTC 200 Microcalorimeter (GE Healthcare) in 25 mM Tris pH 8, 150 mM NaCl, and 1 mM DTT. Titrations consisted of 19 consecutive 2 μl injections of 0.25 to 1 mM peptide solution (following a preinjection of 0.5 μl) into 50 μM protein (VIN3PHD, VIN3_123-326, VIN3_116-307, OBE1_193-372, or pVP13 VIN3_130-299) at time intervals of 120 s. ITC data were analyzed using MicroCal PEAQ-IT Analysis Software (Malvern Sciences).
as §1, with “Spectra were processed in TopSpin version 3.2 (Bruker), with linear prediction in t1, giving a digital resolution of 2.2 and 8.2 Hz/point in the processed data.” left out

B1: 63-mer RNA: FLC RNA transcript, 5′ GGGAAAGAGAAAACGCUUAGUAUCUCCGGCGACUUGAACCCAAACCUGAGGAUCAAAUUAGGG 3′ (nucleic acid)
chain: GGGAAAGAGAAAACGCUUAGUAUCUCCGGCGACUUGAACCCAAACCUGAGGAUCAAAUUAGGG
modifications: RNA, backbone not given here; further chemistry not fully specified
[1]; 50 μM ^15N-labeled VIN3_123-326, 4 μM 60-mer dsDNA or 63-mer RNA (Fig. 6A, B), ssDNA comparison E. F.-E., unpublished
  perturbation of BEST-TROSY spectrum (in words): produced perturbations of the same individual crosspeaks
[1]; BEST-TROSY, 50 μM ^15N-labeled VIN3_123-326, 25 mM Tris pH 8, 150 mM NaCl, 1 mM DTT
  minimal concentration required to produce spectral perturbations: 2 µM
VIN3 PHD superdomain
  propensity for interaction with negatively charged polymers (in words): moderate propensity for interacting; also recorded: interact weakly; also recorded: can interact instead with negatively charged polymers
